Results on one molecule are retold here after PMC5303273, “Rab1 interacts with GOLPH3 and controls Golgi structure and contractile ring constriction during cytokinesis in Drosophila melanogaster” (Open Biology, 2017).

The experiment addresses T1, 6XHis-GOLPH3 (Drosophila melanogaster, UniProt Q9VQ93 1-294).
T1 construct: Drosophila GOLPH3 made with the pET Directional TOPO Expression kit; also called 6XHis-tagged GOLPH3; recombinant GOLPH3; source: recombinant (pET Directional TOPO Expression kit), purified (cOmplete His-Tag Purification Resin)
Kind of experiment: pull-down; GST-Rab protein on glutathione beads loaded with GMP-PNP (GTP), incubated with recombinant 6XHis-GOLPH3 for 5 h at 4°C; blot with anti-6XHis. The note with it: both partners purified.

T1 sequence (Q9VQ93 whole entry): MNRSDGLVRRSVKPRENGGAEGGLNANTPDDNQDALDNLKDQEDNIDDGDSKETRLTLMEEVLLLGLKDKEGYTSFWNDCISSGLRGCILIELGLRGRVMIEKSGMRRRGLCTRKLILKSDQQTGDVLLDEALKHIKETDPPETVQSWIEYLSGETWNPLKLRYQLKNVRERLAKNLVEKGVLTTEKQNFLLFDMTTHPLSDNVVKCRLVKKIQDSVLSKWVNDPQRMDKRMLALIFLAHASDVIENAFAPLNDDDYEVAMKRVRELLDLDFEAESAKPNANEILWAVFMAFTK

B1: GST-Rab1 (natural protein)
chain: not shown
notes: full-length cDNA of Drosophila Rab1 cloned into pGEX-6p-2; In the direct pull-down the protein on the beads was loaded with GDP-beta-S or GMP-PNP; also called GST-full-length Drosophila Rab1; source: BL21-CodonPlus (DE3), purified (Glutathione-Sepharose 4B beads)
With B1, the binding result is listed as “binds”.
